{"source": "paper PMC9516341", "biological_target": "Flag-tagged ARNO (p3XFLAG-2-mCytohesin-2)", "test": "co-immunoprecipitation (anti-FLAG M2 IP of FLAG-ARNO, immunoblot for FE65, quantified)", "settings": "transfected cell lysate; three independent experiments; unpaired t-test, *p < 0.001; parent: 1"}
{"substance": "Myc-tagged FE65 (from UniProt O00213) R605A", "values": [{"measurement": "ratio to parent", "value": 0.34}]}
